# Assay results taken from patent US20210363204A1.
# Tests used:
# Assay in all cases: cell-based or functional assay
# human Nav1.5 (human) = human Nav1.5 (human) (UniProt Q14524)
# human Nav1.7 (human) = human Nav1.7 (human) (UniProt Q15858)
# human Nav1.6 (human) = human Nav1.6 (human) (UniProt Q9UQD0)
substance,measurement,setting,value
recombinant Protoxin-II NV1D12 (peptide),hNav1.5 QPatch IC50,human Nav1.5 (human),> 1000 nM
wild type Protoxin-II (peptide),"IC50, FLIPR Tetra membrane depolarization assay",human Nav1.7 (human),4 nM
recombinant Protoxin-II (peptide),"IC50, QPatch electrophysiology assay",human Nav1.6 (human),6.2e-08 M
same,"ratio of IC50 for Nav1.6 to IC50 for Nav1.7, QPatch",human Nav1.6 (human),28 fold
